The record followed here is paper PMC3282893.

pKd: −log10 of the molar value.

The target of this assay is human IgG1 (solid phase in surface plasmon resonance) (human). The assay can be described thus: SPR. On the technique in general: In SPR one partner is held on a chip, and binding of the other changes the refractive index at the surface.

One may read the pKd as −log10 of the Kd, conventionally taken in molar units.

In the case of “soluble recombinant FcγRIIa-HR (high-responder, arginine R134 allele of FcγRIIa), glycosylated (from UniProt P12318 37-206) (receptor)”, the negative-log Kd (pKd) was 3.30.
